Results: PMC8621939, “Cryo-EM Structure of Mechanosensitive Channel YnaI Using SMA2000: Challenges and Opportunities” (Membranes, 2021)

Molecular target: the molecule itself
Assay: cryo-EM structure; single-particle cryo-EM of SMA2000-purified YnaI, Titan Krios 300 kV; 3D classification without symmetry, final refinement with C7 symmetry, 2.4 Å; NCMN Buffer E (40 mM HEPES pH 7.8, 100 mM NaCl, 0.1 mM TCEP)

B1: low-conductance mechanosensitive channel-like (YnaI), wild type (natural protein, Escherichia coli, UniProt P0AEB5 1-343, looked up)
chain: MIAELFTNNALNLVIIFGSCAALILMSFWFRRGNRKRKGFLFHAVQFLIYTIIISAVGSIINYVIENYKLKFITPGVIDFICTSLIAVILTIKLFLLINQFEKQQIKKGRDITSARIMSRIIKITIIVVLVLLYGEHFGMSLSGLLTFGGIGGLAVGMAGKDILSNFFSGIMLYFDRPFSIGDWIRSPDRNIEGTVAEIGWRITKITTFDNRPLYVPNSLFSSISVENPGRMTNRRITTTIGLRYEDAAKVGVIVEAVREMLKNHPAIDQRQTLLVYFNQFADSSLNIMVYCFTKTTVWAEWLAAQQDVYLKIIDIVQSHGADFAFPSQTLYMDNITPPEQGR
notes: YnaI, MscS-like mechanosensitive channel of Escherichia coli, 343 aa, wild type, full length; Homoheptamer in SMA2000 native lipid particles; Only TM4, TM5 and the cytoplasmic domain are resolved in the map; seven phosphatidylethanolamine molecules were modelled; Cloned in pRSFDuet-1; also called mechanosensitive-like YnaI channel; SMA2000-YnaI; source: E. coli BL21 (DE3) pLysS, extracted from …
- stoichiometry N: 7
